Assay results: paper PMC4615246 (Nucleus, 2015)

Experiments:
Assay in all cases: LacI/LacO array recruitment in cells
[1] = biological target: T1, LacI-CFP-Nup133 (human, UniProt Q8WUM0 1-1156)
T1 sequence: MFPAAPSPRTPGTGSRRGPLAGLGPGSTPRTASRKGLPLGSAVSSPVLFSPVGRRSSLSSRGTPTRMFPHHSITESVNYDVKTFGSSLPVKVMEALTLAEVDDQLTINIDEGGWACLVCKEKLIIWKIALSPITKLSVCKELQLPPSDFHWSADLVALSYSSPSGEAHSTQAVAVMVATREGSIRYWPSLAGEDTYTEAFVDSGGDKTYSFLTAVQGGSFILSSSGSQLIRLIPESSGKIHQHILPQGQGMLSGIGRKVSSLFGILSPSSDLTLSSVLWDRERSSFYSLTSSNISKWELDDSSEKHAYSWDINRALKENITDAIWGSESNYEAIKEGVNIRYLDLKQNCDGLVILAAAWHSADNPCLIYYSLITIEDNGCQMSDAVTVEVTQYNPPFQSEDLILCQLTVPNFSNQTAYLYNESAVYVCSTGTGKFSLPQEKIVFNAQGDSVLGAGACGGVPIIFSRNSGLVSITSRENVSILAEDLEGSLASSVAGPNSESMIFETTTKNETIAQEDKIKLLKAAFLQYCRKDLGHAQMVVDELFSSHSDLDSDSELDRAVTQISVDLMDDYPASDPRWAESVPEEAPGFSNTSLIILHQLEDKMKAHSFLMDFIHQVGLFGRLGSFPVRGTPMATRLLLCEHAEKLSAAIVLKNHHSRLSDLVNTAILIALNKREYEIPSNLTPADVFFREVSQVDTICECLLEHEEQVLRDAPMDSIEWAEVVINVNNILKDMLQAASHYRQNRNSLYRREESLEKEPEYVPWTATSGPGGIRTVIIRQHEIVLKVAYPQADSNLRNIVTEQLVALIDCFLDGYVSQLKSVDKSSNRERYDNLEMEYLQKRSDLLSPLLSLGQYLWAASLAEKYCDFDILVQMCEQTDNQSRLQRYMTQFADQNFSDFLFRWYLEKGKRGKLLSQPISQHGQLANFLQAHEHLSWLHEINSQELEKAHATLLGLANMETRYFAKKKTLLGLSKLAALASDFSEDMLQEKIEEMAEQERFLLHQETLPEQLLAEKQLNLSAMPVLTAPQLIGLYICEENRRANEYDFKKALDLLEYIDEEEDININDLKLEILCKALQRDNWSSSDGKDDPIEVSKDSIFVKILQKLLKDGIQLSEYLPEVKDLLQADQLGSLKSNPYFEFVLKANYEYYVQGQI

[2] = biological target: T2, LacI-CFP-Nup155 (human, UniProt O75694 1-1391)
T2 sequence: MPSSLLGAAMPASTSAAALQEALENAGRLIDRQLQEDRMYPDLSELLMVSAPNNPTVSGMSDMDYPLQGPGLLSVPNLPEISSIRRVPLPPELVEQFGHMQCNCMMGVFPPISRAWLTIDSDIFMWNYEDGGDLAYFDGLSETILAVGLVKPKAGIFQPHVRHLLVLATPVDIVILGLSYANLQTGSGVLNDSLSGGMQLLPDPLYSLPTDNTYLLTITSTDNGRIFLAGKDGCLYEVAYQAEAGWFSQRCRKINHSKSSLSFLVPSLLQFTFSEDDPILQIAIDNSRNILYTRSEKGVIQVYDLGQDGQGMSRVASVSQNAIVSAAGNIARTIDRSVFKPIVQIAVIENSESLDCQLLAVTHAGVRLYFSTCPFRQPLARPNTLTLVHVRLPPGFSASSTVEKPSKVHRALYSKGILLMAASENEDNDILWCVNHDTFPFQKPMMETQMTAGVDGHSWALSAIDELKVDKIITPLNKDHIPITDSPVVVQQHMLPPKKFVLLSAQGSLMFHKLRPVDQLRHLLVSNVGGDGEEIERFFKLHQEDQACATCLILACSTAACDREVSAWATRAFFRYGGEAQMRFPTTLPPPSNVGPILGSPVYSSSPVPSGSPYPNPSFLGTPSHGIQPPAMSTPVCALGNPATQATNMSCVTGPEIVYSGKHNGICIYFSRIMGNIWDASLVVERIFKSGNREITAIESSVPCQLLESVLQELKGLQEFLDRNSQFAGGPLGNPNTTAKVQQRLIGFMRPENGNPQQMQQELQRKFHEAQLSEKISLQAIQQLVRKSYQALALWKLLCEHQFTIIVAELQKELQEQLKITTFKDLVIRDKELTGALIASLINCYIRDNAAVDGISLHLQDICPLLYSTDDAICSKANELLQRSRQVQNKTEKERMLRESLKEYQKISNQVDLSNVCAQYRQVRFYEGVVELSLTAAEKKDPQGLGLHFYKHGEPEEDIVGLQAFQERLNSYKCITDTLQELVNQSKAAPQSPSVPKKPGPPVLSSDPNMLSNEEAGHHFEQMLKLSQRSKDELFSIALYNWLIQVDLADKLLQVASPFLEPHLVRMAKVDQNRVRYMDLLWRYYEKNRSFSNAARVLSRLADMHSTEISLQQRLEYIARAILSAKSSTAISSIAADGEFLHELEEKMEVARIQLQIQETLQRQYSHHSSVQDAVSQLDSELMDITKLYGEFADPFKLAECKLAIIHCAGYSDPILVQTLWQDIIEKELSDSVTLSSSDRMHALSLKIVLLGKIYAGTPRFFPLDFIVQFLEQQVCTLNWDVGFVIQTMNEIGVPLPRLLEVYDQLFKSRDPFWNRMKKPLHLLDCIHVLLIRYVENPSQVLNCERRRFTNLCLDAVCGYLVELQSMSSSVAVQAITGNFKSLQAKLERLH

[3] = biological target: LacI-CFP-Nup214 (human, UniProt P35658 1-2090)
Chain of LacI-CFP-Nup214 (P35658 whole entry): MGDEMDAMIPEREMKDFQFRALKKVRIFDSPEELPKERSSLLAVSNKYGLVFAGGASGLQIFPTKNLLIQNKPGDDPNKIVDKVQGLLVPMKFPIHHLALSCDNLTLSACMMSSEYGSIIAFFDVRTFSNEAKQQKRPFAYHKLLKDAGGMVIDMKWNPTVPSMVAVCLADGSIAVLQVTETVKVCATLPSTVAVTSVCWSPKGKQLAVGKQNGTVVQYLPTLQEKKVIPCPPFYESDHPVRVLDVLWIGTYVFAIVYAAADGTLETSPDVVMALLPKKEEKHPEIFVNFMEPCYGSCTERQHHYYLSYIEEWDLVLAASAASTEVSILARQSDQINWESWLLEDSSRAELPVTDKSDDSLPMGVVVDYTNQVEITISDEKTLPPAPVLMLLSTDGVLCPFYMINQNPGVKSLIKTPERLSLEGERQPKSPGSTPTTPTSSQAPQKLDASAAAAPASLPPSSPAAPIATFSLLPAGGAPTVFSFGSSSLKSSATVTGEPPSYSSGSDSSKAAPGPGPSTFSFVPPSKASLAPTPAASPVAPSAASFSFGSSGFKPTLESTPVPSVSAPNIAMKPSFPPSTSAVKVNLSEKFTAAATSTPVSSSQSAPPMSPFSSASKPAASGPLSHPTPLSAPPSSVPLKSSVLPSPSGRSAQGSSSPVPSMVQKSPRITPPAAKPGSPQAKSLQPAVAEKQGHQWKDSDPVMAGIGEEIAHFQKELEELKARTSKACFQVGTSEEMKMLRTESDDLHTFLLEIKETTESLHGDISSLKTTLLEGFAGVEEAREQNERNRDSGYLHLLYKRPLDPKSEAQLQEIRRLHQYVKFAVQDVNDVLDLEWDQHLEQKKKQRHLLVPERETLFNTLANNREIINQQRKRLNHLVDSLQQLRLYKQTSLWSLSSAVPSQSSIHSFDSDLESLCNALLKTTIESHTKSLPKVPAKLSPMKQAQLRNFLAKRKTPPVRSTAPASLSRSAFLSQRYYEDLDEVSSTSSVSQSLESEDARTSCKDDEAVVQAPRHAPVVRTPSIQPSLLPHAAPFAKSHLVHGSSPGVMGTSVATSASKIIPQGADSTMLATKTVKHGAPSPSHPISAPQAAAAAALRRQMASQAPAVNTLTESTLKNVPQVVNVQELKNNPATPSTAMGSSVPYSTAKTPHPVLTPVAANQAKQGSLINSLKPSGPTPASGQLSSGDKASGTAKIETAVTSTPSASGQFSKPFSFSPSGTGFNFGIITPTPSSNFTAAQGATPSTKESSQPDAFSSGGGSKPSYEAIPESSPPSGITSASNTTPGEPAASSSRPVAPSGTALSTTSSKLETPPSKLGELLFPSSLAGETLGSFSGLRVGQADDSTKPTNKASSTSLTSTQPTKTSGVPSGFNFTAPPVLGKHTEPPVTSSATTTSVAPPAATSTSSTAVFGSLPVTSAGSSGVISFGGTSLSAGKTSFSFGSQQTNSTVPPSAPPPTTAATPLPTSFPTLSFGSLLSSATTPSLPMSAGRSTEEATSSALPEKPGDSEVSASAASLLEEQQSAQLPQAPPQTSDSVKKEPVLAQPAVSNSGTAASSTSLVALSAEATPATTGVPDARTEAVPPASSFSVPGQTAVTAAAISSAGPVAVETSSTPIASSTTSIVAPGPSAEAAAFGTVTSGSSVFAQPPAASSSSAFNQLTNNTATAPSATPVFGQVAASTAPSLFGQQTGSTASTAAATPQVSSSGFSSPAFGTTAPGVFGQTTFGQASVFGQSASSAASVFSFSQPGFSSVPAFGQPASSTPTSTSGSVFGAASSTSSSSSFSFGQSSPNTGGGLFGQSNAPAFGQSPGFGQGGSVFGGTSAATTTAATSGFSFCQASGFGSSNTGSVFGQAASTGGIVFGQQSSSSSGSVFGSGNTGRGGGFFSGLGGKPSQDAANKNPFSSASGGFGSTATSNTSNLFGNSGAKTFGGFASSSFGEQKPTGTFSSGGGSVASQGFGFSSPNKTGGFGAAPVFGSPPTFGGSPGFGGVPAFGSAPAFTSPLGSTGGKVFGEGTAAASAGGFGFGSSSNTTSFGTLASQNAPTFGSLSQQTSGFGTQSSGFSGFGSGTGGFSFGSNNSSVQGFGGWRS

B1: Nup160 (endogenous) (natural protein)
chain: MLHLSAAPPAPPPEVTATARPCLCSVGRRGDGGKMAAAGALERSFVELSGAERERPRHFREFTVCSIGTANAVAGAVKYSESAGGFYYVESGKLFSVTRNRFIHWKTSGDTLELMEESLDINLLNNAIRLKFQNCSVLPGGVYVSETQNRVIILMLTNQTVHRLLLPHPSRMYRSELVVDSQMQSIFTDIGKVDFTDPCNYQLIPAVPGISPNSTASTAWLSSDGEALFALPCASGGIFVLKLPPYDIPGMVSVVELKQSSVMQRLLTGWMPTAIRGDQSPSDRPLSLAVHCVEHDAFIFALCQDHKLRMWSYKEQMCLMVADMLEYVPVKKDLRLTAGTGHKLRLAYSPTMGLYLGIYMHAPKRGQFCIFQLVSTESNRYSLDHISSLFTSQETLIDFALTSTDIWALWHDAENQTVVKYINFEHNVAGQWNPVFMQPLPEEEIVIRDDQDPREMYLQSLFTPGQFTNEALCKALQIFCRGTERNLDLSWSELKKEVTLAVENELQGSVTEYEFSQEEFRNLQQEFWCKFYACCLQYQEALSHPLALHLNPHTNMVCLLKKGYLSFLIPSSLVDHLYLLPYENLLTEDETTISDDVDIARDVICLIKCLRLIEESVTVDMSVIMEMSCYNLQSPEKAAEQILEDMITIDVENVMEDICSKLQEIRNPIHAIGLLIREMDYETEVEMEKGFNPAQPLNIRMNLTQLYGSNTAGYIVCRGVHKIASTRFLICRDLLILQQLLMRLGDAVIWGTGQLFQAQQDLLHRTAPLLLSYYLIKWGSECLATDVPLDTLESNLQHLSVLELTDSGALMANRFVSSPQTIVELFFQEVARKHIISHLFSQPKAPLSQTGLNWPEMITAITSYLLQLLWPSNPGCLFLECLMGNCQYVQLQDYIQLLHPWCQVNVGSCRFMLGRCYLVTGEGQKALECFCQAASEVGKEEFLDRLIRSEDGEIVSTPRLQYYDKVLRLLDVIGLPELVIQLATSAITEAGDDWKSQATLRTCIFKHHLDLGHNSQAYEALTQIPDSSRQLDCLRQLVVVLCERSQLQDLVEFPYVNLHNEVVGIIESRARAVDLMTHNYYELLYAFHIYRHNYRKAGTVMFEYGMRLGREVRTLRGLEKQGNCYLAALNCLRLIRPEYAWIVQPVSGAVYDRPGASPKRNHDGECTAAPTNRQIEILELEDLEKECSLARIRLTLAQHDPSAVAVAGSSSAEEMVTLLVQAGLFDTAISLCQTFKLPLTPVFEGLAFKCIKLQFGGEAAQAEAWAWLAANQLSSVITTKESSATDEAWRLLSTYLERYKVQNNLYHHCVINKLLSHGVPLPNWLINSYKKVDAAELLRLYLNYDLLEEAVDLVSEYVDAVLGKGHQYFGIEFPLSATAPMVWLPYSSIDQLLQALGENSANSHNIALSQKILDKLEDYQQKVDKATRDLLYRRTL
Which “percent of transfected cells showing colocalization” value (shortened to “percent”) [1] does the source give for B1 here?
Its value is 44%.

B2: Nup85 (endogenous) (natural protein)
chain: MEELDGEPTVTLIPGVNSKKNQMYFDWGPGEMLVCETSFNKKEKSEMVPSCPFIYIIRKDVDVYSQILRKLFNESHGIFLGLQRIDEELTGKSRKSQLVRVSKNYRSVIRACMEEMHQVAIAAKDPANGRQFSSQVSILSAMELIWNLCEILFIEVAPAGPLLLHLLDWVRLHVCEVDSLSADVLGSENPSKHDSFWNLVTILVLQGRLDEARQMLSKEADASPASAGICRIMGDLMRTMPILSPGNTQTLTELELKWQHWHEECERYLQDSTFATSPHLESLLKIMLGDEAALLEQKELLSNWYHFLVTRLLYSNPTVKPIDLHYYAQSSLDLFLGGESSPEPLDNILLAAFEFDIHQVIKECSIALSNWWFVAHLTDLLDHCKLLQSHNLYFGSNMREFLLLEYASGLFAHPSLWQLGVDYFDYCPELGRVSLELHIERIPLNTEQKALKVLRICEQRQMTEQVRSICKILAMKAVRNNRLGSALSWSIRAKDAAFATLVSDRFLRDYCERGCFSDLDLIDNLGPAMMLSDRLTFLGKYREFHRMYGEKRFADAASLLLSLMTSRIAPRSFWMTLLTDALPLLEQKQVIFSAEQTYELMRCLEDLTSRRPVHGESDTEQLQDDDIETTKVEMLRLSLARNLARAIIREGSLEGS
How did the “percent” value [1] turn out when B2 was run?
The value was 86%.

B3: Nup53 (endogenous) (natural protein)
chain: MAAFAVEPQGPALGSEPMMLGSPTSPKPGVNAQFLPGFLMGDLPAPVTPQPRSISGPSVGVMEMRSPLLAGGSPPQPVVPAHKDKSGAPPVRSIYDDISSPGLGSTPLTSRRQPNISVMQSPLVGVTSTPGTGQSMFSPASIGQPRKTTLSPAQLDPFYTQGDSLTSEDHLDDSWVTVFGFPQASASYILLQFAQYGNILKHVMSNTGNWMHIRYQSKLQARKALSKDGRIFGESIMIGVKPCIDKSVMESSDRCALSSPSLAFTPPIKTLGTPTQPGSTPRISTMRPLATAYKASTSDYQVISDRQTPKKDESLVSKAMEYMFGW
Which results are given for B3?
percent of transfected cells showing colocalization [1]: 20%; percent of transfected cells showing colocalization [2]: 46%

B4: Nup62 (endogenous) (natural protein)
chain: MSGFNFGGTGAPTGGFTFGTAKTATTTPATGFSFSTSGTGGFNFGAPFQPATSTPSTGLFSLATQTPATQTTGFTFGTATLASGGTGFSLGIGASKLNLSNTAATPAMANPSGFGLGSSNLTNAISSTVTSSQGTAPTGFVFGPSTTSVAPATTSGGFSFTGGSTAQPSGFNIGSAGNSAQPTAPATLPFTPATPAATTAGATQPAAPTPTATITSTGPSLFASIATAPTSSATTGLSLCTPVTTAGAPTAGTQGFSLKAPGAASGTSTTTSTAATATATTTSSSSTTGFALNLKPLAPAGIPSNTAAAVTAPPGPGAAAGAAASSAMTYAQLESLINKWSLELEDQERHFLQQATQVNAWDRTLIENGEKITSLHREVEKVKLDQKRLDQELDFILSQQKELEDLLSPLEELVKEQSGTIYLQHADEEREKTYKLAENIDAQLKRMAQDLKDIIEHLNTSGAPADTSDPLQQICKILNAHMDSLQWIDQNSALLQRKVEEVTKVCEGRRKEQERSFRITFD
For B4, which “percent” value [1] is on record?
Its value is 5%.

What about the “percent” value [3] of the same binder?
The value was 97%.
